Reference: IntAct's records for PubMed 29892012

B1: E3 ubiquitin-protein ligase LNX (Homo sapiens), Q8TBB1 (parent)
chain: MNQPESANDPEPLCAVCGQAHSLEENHFYSYPEEVDDDLICHICLQALLDPLDTPCGHTYCTLCLTNFLVEKDFCPMDRKPLVLQHCKKSSILVNKLLNKLLVTCPFREHCTQVLQRCDLEHHFQTSCKGASHYGLTKDRKRRSQDGCPDGCASLTATAPSPEVSAAATISLMTDEPGLDNPAYVSSAEDGQPAISPVDSGRSNRTRARPFERSTIRSRSFKKINRALSVLRRTKSGSAVANHADQGRENSENTTAPEVFPRLYHLIPDGEITSIKINRVDPSESLSIRLVGGSETPLVHIIIQHIYRDGVIARDGRLLPGDIILKVNGMDISNVPHNYAVRLLRQPCQVLWLTVMREQKFRSRNNGQAPDAYRPRDDSFHVILNKSSPEEQLGIKLVRKVDEPGVFIFNVLDGGVAYRHGQLEENDRVLAINGHDLRYGSPESAAHLIQASERRVHLVVSRQVRQRSPDIFQEAGWNSNGSWSPGPGERSNTPKPLHPTITCHEKVVNIQKDPGESLGMTVAGGASHREWDLPIYVISVEPGGVISRDGRIKTGDILLNVDGVELTEVSRSEAVALLKRTSSSIVLKALEVKEYEPQEDCSSPAALDSNHNMAPPSDWSPSWVMWLELPRCLYNCKDIVLRRNTAGSLGFCIVGGYEEYNGNKPFFIKSIVEGTPAYNDGRIRCGDILLAVNGRSTSGMIHACLARLLKELKGRITLTIVSWPGTFL
partner: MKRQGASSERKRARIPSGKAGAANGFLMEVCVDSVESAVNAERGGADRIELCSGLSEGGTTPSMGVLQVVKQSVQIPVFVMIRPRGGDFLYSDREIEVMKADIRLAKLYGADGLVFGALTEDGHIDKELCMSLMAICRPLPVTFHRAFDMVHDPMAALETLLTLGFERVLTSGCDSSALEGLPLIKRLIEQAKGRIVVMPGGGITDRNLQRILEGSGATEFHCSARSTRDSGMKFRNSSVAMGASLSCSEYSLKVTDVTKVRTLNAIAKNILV
B2: E3 ubiquitin-protein ligase LNX (Homo sapiens), Q8TBB1 (parent)
chain: B1 chain
partner: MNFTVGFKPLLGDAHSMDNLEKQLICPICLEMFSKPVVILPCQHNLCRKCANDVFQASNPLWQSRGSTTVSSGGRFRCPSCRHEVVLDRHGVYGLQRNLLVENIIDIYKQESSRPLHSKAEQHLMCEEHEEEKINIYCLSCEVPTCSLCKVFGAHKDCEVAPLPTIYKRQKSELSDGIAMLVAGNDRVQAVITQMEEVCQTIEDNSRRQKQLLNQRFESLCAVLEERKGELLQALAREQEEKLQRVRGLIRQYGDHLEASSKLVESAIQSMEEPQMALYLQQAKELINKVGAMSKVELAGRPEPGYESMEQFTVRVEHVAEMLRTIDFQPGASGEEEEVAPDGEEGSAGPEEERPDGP
B3: E3 ubiquitin-protein ligase LNX (Homo sapiens), Q8TBB1 (parent)
chain: B1 chain
partner: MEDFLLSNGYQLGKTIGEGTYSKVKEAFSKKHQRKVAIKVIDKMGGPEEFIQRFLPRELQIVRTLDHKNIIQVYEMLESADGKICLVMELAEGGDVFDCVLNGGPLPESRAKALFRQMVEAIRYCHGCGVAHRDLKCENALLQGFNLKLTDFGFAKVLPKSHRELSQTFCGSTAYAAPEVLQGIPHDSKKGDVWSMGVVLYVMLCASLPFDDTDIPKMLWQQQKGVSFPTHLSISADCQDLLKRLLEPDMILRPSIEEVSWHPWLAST
B4: E3 ubiquitin-protein ligase LNX (Homo sapiens), Q8TBB1 (parent)
chain: B1 chain
partner: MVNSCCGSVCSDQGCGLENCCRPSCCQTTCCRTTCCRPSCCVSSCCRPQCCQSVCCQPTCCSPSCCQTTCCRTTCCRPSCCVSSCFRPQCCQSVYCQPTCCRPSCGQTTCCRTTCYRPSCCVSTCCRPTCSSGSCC
B5: E3 ubiquitin-protein ligase LNX (Homo sapiens), Q8TBB1 (parent)
chain: B1 chain
partner: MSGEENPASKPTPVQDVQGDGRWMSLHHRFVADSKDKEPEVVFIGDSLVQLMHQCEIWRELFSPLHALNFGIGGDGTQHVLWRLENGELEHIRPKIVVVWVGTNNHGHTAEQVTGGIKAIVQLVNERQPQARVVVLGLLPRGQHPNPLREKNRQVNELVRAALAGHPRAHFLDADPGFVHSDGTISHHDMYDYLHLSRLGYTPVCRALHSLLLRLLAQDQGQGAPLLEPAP
B6: E3 ubiquitin-protein ligase LNX (Homo sapiens), Q8TBB1 (parent)
chain: B1 chain
partner: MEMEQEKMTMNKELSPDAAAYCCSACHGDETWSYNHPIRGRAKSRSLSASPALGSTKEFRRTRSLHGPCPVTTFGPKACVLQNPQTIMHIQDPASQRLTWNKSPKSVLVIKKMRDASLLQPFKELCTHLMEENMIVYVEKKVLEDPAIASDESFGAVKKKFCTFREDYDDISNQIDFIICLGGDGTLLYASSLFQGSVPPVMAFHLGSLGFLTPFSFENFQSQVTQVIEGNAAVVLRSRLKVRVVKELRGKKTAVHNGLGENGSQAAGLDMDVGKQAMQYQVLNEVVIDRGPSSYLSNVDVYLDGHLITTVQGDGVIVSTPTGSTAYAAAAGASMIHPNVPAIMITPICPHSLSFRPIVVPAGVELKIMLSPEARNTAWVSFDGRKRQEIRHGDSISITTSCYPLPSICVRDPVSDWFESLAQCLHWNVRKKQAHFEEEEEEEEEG
B7: E3 ubiquitin-protein ligase LNX (Homo sapiens), Q8TBB1 (parent)
chain: B1 chain
partner: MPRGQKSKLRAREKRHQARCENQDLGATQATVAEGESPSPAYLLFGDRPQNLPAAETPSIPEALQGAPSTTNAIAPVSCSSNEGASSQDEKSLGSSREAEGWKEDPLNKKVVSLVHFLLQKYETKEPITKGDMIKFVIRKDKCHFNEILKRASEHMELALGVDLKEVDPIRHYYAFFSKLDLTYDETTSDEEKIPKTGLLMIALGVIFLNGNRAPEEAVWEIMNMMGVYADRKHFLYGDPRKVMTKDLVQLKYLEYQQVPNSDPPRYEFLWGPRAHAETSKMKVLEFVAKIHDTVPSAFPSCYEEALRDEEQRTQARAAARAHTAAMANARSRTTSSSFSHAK
B8: E3 ubiquitin-protein ligase LNX (Homo sapiens), Q8TBB1 (parent)
chain: B1 chain
partner: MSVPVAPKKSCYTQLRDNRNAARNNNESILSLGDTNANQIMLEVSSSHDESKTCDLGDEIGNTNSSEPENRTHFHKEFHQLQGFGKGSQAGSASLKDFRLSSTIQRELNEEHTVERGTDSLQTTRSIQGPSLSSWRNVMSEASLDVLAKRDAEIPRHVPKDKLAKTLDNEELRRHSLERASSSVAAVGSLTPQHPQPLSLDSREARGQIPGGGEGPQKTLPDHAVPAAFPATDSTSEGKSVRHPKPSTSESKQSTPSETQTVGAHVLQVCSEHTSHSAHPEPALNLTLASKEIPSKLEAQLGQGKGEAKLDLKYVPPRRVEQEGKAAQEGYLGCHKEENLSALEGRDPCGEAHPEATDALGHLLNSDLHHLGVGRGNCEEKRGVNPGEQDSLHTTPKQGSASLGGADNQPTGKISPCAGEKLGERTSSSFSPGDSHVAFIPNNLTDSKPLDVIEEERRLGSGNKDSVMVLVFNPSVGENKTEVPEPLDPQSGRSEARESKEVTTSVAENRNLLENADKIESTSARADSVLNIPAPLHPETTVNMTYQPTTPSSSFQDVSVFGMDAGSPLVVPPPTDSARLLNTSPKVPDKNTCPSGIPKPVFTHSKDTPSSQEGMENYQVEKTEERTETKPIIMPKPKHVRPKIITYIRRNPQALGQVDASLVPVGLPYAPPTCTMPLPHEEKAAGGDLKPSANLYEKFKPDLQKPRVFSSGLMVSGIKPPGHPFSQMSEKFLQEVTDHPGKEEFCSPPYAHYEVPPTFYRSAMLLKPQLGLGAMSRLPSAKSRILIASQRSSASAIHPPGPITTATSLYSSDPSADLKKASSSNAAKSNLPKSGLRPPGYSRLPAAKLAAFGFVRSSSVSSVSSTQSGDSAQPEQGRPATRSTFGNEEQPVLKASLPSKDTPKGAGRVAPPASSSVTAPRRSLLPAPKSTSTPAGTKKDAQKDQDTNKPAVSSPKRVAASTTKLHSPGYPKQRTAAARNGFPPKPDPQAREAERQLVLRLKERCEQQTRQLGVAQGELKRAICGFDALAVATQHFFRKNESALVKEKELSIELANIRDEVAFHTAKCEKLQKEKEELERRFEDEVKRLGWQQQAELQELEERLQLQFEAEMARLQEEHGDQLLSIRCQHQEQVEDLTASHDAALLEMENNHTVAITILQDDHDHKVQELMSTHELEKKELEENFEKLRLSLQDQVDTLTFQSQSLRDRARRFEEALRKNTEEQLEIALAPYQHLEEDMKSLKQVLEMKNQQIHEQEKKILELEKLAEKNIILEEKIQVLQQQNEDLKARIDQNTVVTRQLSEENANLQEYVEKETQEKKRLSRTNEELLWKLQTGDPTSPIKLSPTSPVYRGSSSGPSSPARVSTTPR

Variants of: B1
Conditions: with cutc_human CUTC

Variant | effect of a mutation on the interaction
E295K | disrupting interaction strength

Variants of: B2
Conditions: with tri54_human TRIM54, Q9BYV2

Variant | effect of a mutation on the interaction
E295K | disrupting interaction strength

Variants of: B3
Conditions: with tssk3_human TSSK3, Q96PN8

Variant | effect of a mutation on the interaction
E295K | disrupting interaction strength

Variants of: B4
Conditions: with kra42_human KRTAP4-2, Q9BYR5

Variant | effect of a mutation on the interaction
E295K | disrupting interaction strength

Variants of: B5
Conditions: with pa1b3_human PAFAH1B3, Q15102

Variant | effect of a mutation on the interaction
E295K | disrupting interaction strength

Variants of: B6
Conditions: with nadk_human NADK

Variant | effect of a mutation on the interaction
E295K | disrupting interaction strength

Variants of: B7
Conditions: with magbi_human MAGEB18, Q96M61

Variant | effect of a mutation on the interaction
E295K | disrupting interaction strength

Variants of: B8
Conditions: with mtus2_human MTUS2, Q5JR59

Variant | effect of a mutation on the interaction
E295K | disrupting interaction strength
